# From PMC13541614 (Nature Methods, 2026)
# B1: AZD3152 (anti-SARS-CoV-2 RBD antibody), IgG (antibody, V domains shown)
# VH: EVQLVESGGGLVQPGRSLRLSCAASGFPFDDYAIHWVRLAPGKGLEWVSSISWDSGSIGYADSVKGRFTISRDNAKNSLYLQMNSLRAEDTALYYCAKGAFPGYSSGWYYGLEVWGQGTTVTVSS
# VL: QSVVTQPPSASGSLGQSVTISCTGTSSDVGGYNYVSWYQQHPGKAPKLMIFEVSKRPSGVPDRFSGSKSGNTASLTVSGLQAEDEADYYCSSYAGNKGVFGGGTKLTVL
# notes: also called control antibody; source: Expi293F, transfected, purified (HiTrap MabSelect PrismA); copies: 2 + 2
# Target: H5N1 influenza hemagglutinin (HA) of A/Vietnam/1203/2004, native (wild type) (Influenza A virus A/Vietnam/1203/2004 …, UniProt Q5EP31, strain)
# Test: BLI
# Details: both partners purified
binder,measurement,value
B1,binding result,no binding (tested: 100 nM)
